Where a chain is given by its changes, count along the chain named.
What was measured:
Experiment in all cases: EMSA
[1] = molecular target: UV-DDB (DDB1-DDB2 heterodimer) (Homo sapiens) (UniProt Q16531+Q92466); conditions: N at position 20 of strand 1 = tetrahydrofuran (abasic analog), opposite T
OGG1 = OGG1 (Homo sapiens, UniProt O15527 1-345)
[2] = molecular target: UV-DDB (DDB1-DDB2 heterodimer) (Homo sapiens, UniProt Q16531;Q92466 1-1140;1-427)
UV-DDB (DDB1-DDB2 heterodimer), sequence (Q16531 whole entry, chain 1 of 2): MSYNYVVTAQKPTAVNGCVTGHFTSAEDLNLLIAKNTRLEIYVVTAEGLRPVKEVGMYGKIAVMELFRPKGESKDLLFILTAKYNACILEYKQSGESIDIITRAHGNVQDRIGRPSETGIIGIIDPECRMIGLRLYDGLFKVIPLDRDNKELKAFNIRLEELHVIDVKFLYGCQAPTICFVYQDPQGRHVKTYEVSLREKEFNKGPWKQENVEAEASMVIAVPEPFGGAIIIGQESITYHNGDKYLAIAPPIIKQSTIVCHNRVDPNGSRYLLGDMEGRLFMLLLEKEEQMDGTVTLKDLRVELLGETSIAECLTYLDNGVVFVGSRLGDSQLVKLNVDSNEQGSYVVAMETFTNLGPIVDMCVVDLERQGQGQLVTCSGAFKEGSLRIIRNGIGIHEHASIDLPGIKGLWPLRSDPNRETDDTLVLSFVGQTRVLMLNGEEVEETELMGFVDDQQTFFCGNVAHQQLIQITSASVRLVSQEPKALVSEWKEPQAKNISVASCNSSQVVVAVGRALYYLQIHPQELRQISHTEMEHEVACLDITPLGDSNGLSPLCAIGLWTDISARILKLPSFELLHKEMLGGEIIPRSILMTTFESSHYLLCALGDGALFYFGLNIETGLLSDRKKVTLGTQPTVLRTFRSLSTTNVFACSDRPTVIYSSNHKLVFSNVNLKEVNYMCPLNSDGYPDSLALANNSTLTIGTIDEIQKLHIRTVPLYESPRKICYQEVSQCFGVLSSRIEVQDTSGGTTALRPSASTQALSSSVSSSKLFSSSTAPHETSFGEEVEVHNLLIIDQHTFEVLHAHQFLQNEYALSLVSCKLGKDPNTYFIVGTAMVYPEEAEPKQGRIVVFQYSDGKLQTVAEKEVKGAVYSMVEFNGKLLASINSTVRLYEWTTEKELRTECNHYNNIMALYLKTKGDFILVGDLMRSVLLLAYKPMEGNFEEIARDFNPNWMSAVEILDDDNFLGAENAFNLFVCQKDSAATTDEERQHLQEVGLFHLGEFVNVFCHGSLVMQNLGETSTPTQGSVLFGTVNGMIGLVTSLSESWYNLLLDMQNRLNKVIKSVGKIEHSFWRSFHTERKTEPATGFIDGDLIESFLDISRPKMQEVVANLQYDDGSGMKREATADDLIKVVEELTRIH
UV-DDB (DDB1-DDB2 heterodimer), sequence (Q92466 whole entry, chain 2 of 2): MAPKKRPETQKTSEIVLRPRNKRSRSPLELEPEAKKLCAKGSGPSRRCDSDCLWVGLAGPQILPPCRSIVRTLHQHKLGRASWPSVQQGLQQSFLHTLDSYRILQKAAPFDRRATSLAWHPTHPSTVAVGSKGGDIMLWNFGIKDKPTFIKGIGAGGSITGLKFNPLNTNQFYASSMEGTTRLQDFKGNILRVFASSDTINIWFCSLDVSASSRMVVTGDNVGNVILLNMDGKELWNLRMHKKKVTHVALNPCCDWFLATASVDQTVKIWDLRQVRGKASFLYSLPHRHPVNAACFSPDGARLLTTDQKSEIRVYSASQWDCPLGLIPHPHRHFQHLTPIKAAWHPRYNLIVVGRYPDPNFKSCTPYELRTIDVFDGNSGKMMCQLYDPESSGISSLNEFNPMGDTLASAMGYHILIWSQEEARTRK

UV-DDB (DDB1-DDB2 heterodimer) (Homo sapiens), sequence (Q16531 whole entry, chain 1 of 2): as the sequence (Q16531 whole entry, chain 1 of 2) above
UV-DDB (DDB1-DDB2 heterodimer) (Homo sapiens), sequence (Q92466 whole entry, chain 2 of 2): as the sequence (Q92466 whole entry, chain 2 of 2) above
OGG1, sequence (O15527 whole entry): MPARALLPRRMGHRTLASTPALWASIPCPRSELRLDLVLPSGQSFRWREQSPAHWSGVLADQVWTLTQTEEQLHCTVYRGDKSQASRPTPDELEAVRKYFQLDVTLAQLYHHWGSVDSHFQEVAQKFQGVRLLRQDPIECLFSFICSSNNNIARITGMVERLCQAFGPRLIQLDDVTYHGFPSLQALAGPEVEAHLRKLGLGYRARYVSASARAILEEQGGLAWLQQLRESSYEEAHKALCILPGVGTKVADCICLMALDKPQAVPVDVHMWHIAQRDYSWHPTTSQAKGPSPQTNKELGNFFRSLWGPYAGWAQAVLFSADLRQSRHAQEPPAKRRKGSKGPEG

“CCGAGTCATTCCTGCAGCGNGTCCATGGGAGTCAAAT / ATTTGACTCCCATGGACTCGCTGCAGGAATGACTCGG [THF37]” showed a Kd [1] of 3.9 nM.

B1: 8-oxoG37(G:C) (dsDNA)
DNA 1: CCGAGTCATTCCTGCAGCGAGTCCATGGGAGTCAAAT
DNA 2: ATTTGACTCCCATGGACTCGCTGCAGGAATGACTCGG
modifications: 8-oxoG at position 21 of strand 1 (printed as Z), opposite C
B1 was tested, and the binding signal (OGG1) was ~3 fold lower affinity than THF37 and the Kd [2] was 160 ± 12.4 nM.

B2: 8-oxoG37(G:A) (dsDNA)
DNA 1: B1 DNA 1
DNA 2: B1 DNA 2 with C17A
modifications: 8-oxoG at position 21 of strand 1 (printed as Z), opposite A
For B2, the Kd [2] was 164 ± 14.8 nM.

B3: UD37 (dsDNA)
DNA 1: B1 DNA 1
DNA 2: B1 DNA 2
B3 gave a Kd [2] of 1110 ± 95.5 nM.
